Each block holds one sequence with its values, some of them ahead of it.
Columns and labels:
HLA-A*31:01 = test: IEDB peptide-MHC binding, purified MHC/direct/fluorescence; filed as Kd, often an IC50 or EC50 that approximates it; ≥ and ≤ were set here for values at or beyond the usual limits of such assays
HLA-B*48:01 = test: as above
HLA-B*15:09 = test: as above; settings: source organism: Ravn virus - Ravn, Kenya, 1987
HLA-A*68:02 = test: as above
HLA-B*57:01 = test: as above
HLA-B*73:01 = test: as above; settings: source organism: Marburg virus - Musoke, Kenya, 1980
HLA-A*01:01 [1] = test: as above
HLA-B*58:01 = test: as above
HLA-A*69:01 = test: as above
HLA-A*11:01 = test: as above
HLA-B*18:01 = test: as above; settings: source organism: Marburg virus - Musoke, Kenya, 1980
HLA-B*08:02 = test: as above
HLA-B*07:02 = test: as above
HLA-B*27:05 = test: as above
HLA-B*15:17 [2] = test: IEDB peptide-MHC binding, purified MHC/competitive/fluorescence; filed as Kd, often an IC50 or EC50 that approximates it; ≥ and ≤ were set here for values at or beyond the usual limits of such assays; settings: source organism: Orthomarburgvirus marburgense
HLA-A*26:03 = test: as above; settings: source organism: Orthomarburgvirus marburgense
HLA-B*39:01 = test: as above; settings: source organism: Orthomarburgvirus marburgense
HLA-B*15:01 [3] = test: as above; settings: source organism: Orthomarburgvirus marburgense
HLA-A*26:01 [4] = test: as above; settings: source organism: Orthomarburgvirus marburgense
HLA-A*26:02 [5] = test: as above; settings: source organism: Orthomarburgvirus marburgense
HLA-A*24:02 = test: as above
HLA-B*15:17 [6] = test: IEDB peptide-MHC binding, purified MHC/direct/fluorescence; filed as Kd, often an IC50 or EC50 that approximates it; ≥ and ≤ were set here for values at or beyond the usual limits of such assays; settings: source organism: Mycobacterium tuberculosis
HLA-B*40:01 = test: as above
HLA-B*08:03 = test: as above; settings: source organism: Mycobacterium tuberculosis str. Haarlem
HLA-B*08:01 = test: as above
HLA-B*15:01 [7] = test: as above
HLA-A*26:02 [8] = test: as above; settings: source organism: Mycobacterium tuberculosis str. Haarlem
HLA-B*46:01 = test: as above; settings: source organism: Mycobacterium tuberculosis
HLA-A*02:01 [9] = test: IEDB peptide-MHC binding, purified MHC/competitive/fluorescence; filed as Kd, often an IC50 or EC50 that approximates it; ≥ and ≤ were set here for values at or beyond the usual limits of such assays; settings: source organism: Mycobacterium tuberculosis variant bovis BCG str. Pasteur 1173P2
HLA-A*32:15 = test: as above; settings: source organism: Staphylococcus aureus subsp. aureus N315
HLA-A*32:07 = test: as above; settings: source organism: Staphylococcus aureus subsp. aureus N315
HLA-A*29:02 = test: as above; settings: source organism: Staphylococcus aureus subsp. aureus N315
HLA-B*15:42 = test: as above; settings: source organism: Staphylococcus aureus subsp. aureus N315
HLA-A*01:01 [10] = test: as above; settings: source organism: Staphylococcus aureus subsp. aureus N315
HLA-B*45:06 = test: as above; settings: source organism: Staphylococcus aureus subsp. aureus N315
HLA-A*24:03 = test: IEDB peptide-MHC binding, purified MHC/direct/fluorescence; filed as Kd, often an IC50 or EC50 that approximates it; ≥ and ≤ were set here for values at or beyond the usual limits of such assays; settings: source organism: Escherichia coli
HLA-C*04:01 = test: as above
HLA-C*06:02 = test: as above; settings: source organism: Rickettsia felis URRWXCal2
HLA-C*14:02 = test: as above; settings: source organism: Rickettsia felis URRWXCal2
HLA-C*15:02 = test: as above; settings: source organism: Rickettsia felis URRWXCal2
HLA-B*15:02 = test: IEDB peptide-MHC binding, purified MHC/competitive/fluorescence; filed as Kd, often an IC50 or EC50 that approximates it; ≥ and ≤ were set here for values at or beyond the usual limits of such assays
HLA-A*23:01 = test: as above; settings: source organism: Cryptosporidium parvum Iowa II
HLA-B*35:01 = test: IEDB peptide-MHC binding, purified MHC/direct/fluorescence; filed as Kd, often an IC50 or EC50 that approximates it; ≥ and ≤ were set here for values at or beyond the usual limits of such assays; settings: source organism: Corynebacterium glutamicum
HLA-A*03:01 = test: as above; settings: source organism: Corynebacterium efficiens
HLA-A*26:01 [11] = test: as above; settings: source organism: Corynebacterium efficiens
HLA-A*02:01 [12] = test: as above; settings: source organism: Corynebacterium efficiens
[13] = source organism: Marburg virus - Musoke, Kenya, 1980
[14] = source organism: Mycobacterium tuberculosis
[15] = source organism: Mycobacterium tuberculosis str. Haarlem
[16] = source organism: Corynebacterium efficiens
[17] = source organism: Corynebacterium glutamicum

Sequence: ARHGEYAPF
Kd (HLA-A*31:01; [13]): ≥ 20 µM | Kd (HLA-B*48:01; [13]): ≥ 20 µM | Kd (HLA-B*15:09): ≥ 20 µM | Kd (HLA-A*68:02; [13]): ≥ 20 µM | Kd (HLA-B*57:01; [13]): ≥ 20 µM | Kd (HLA-B*73:01): ≥ 20 µM | Kd (HLA-A*01:01 [1]; [13]): ≥ 20 µM | Kd (HLA-B*58:01; [13]): ≥ 20 µM | Kd (HLA-A*69:01; [13]): ≥ 20 µM | Kd (HLA-A*11:01; [13]): ≥ 20 µM | Kd (HLA-B*18:01): ≥ 20 µM | Kd (HLA-B*08:02; source organism: Ravn virus - Ravn, Kenya, 1987): ≥ 20 µM | Kd (HLA-B*07:02; [13]): ≥ 20 µM | Kd (HLA-B*27:05; [13]): 0.168 µM | Kd (HLA-B*15:17 [2]): ≥ 20 µM | Kd (HLA-A*26:03): ≥ 20 µM | Kd (HLA-B*39:01): 1090 nM | Kd (HLA-B*15:01 [3]): 3.34 µM | Kd (HLA-A*26:01 [4]): 4 µM | Kd (HLA-A*26:02 [5]): 738 nM

Sequence: EYLRIPLTI
Kd (HLA-A*24:02; source organism: Entamoeba histolytica HM-1:IMSS): ≤ 0.1 nM

Sequence: KLVGIELPK
Kd (HLA-B*15:17 [6]): ≥ 20 µM | Kd (HLA-A*31:01; [14]): 6.82 µM | Kd (HLA-B*48:01; [14]): ≥ 20 µM | Kd (HLA-A*68:02; [14]): ≥ 20 µM | Kd (HLA-B*57:01; [14]): ≥ 20 µM | Kd (HLA-A*01:01 [1]; [14]): ≥ 20 µM | Kd (HLA-B*40:01; [14]): ≥ 20 µM | Kd (HLA-B*58:01; [14]): ≥ 20 µM | Kd (HLA-A*69:01; [14]): ≥ 20 µM | Kd (HLA-A*11:01; [14]): 0.0733 µM | Kd (HLA-B*08:03): ≥ 20 µM | Kd (HLA-B*08:02; [15]): ≥ 20 µM | Kd (HLA-B*07:02; [14]): ≥ 20 µM | Kd (HLA-B*08:01; [15]): ≥ 20 µM | Kd (HLA-B*27:05; [14]): ≥ 20 µM | Kd (HLA-B*15:01 [7]; [14]): ≥ 20000 nM | Kd (HLA-A*26:02 [8]): ≥ 20 µM | Kd (HLA-B*46:01): ≥ 20 µM | Kd (HLA-A*02:01 [9]): ≥ 20 µM

Sequence: MVIKWIHER
Kd (HLA-A*32:15): 52.5 nM | Kd (HLA-A*32:07): 203 nM | Kd (HLA-A*29:02): 548 nM | Kd (HLA-B*15:42): ≥ 5 µM | Kd (HLA-A*01:01 [10]): 17 µM | Kd (HLA-B*45:06): ≥ 5 µM

Sequence: MYTRNLLWL
Kd (HLA-A*24:03): 1.8 nM | Kd (HLA-C*04:01; source organism: Escherichia coli HS): ≥ 20 µM

Sequence: RWLPLVSLF
Kd (HLA-C*06:02): ≥ 20 µM | Kd (HLA-C*14:02): 399 nM | Kd (HLA-C*15:02): ≥ 20 µM | Kd (HLA-A*24:02; source organism: Rickettsia felis URRWXCal2): ≤ 0.1 nM

Sequence: SLYDIITVM
Kd (HLA-B*15:02; source organism: Listeria monocytogenes): ≥ 20 µM

Sequence: TFMGMNVQF
Kd (HLA-C*04:01; source organism: Cryptosporidium parvum Iowa II): ≥ 20 µM | Kd (HLA-A*23:01): 1.2 nM

Kd (HLA-A*31:01; [16]): ≥ 20 µM | Kd (HLA-A*01:01 [1]; [17]): ≥ 5 µM | Kd (HLA-B*40:01; [16]): ≥ 20 µM | Kd (HLA-B*35:01): 383 nM | Kd (HLA-B*58:01; [16]): ≥ 20 µM | Kd (HLA-A*03:01): ≥ 20 µM | Kd (HLA-A*69:01; [16]): ≥ 20 µM | Kd (HLA-A*11:01; [16]): ≥ 20 µM | Kd (HLA-B*07:02; [16]): ≥ 20 µM | Kd (HLA-B*08:01; [16]): ≥ 20 µM | Kd (HLA-B*27:05; [16]): ≥ 20 µM | Kd (HLA-B*15:01 [7]; [17]): 199 nM | Kd (HLA-A*26:01 [11]): ≥ 20 µM | Kd (HLA-A*02:01 [12]): ≥ 20 µM | Kd (HLA-B*15:02; [16]): ≥ 20 µM
Sequence: VQLQEYDTY

Reference: the Immune Epitope Database (IEDB)
